Source: FireProtDB (doi:10.1006/jmbi.1999.2772)

Details: Thermotoga maritima (strain ATCC 43589 / DSM 3109 / JCM 10099 / NBRC 100826 / MSB8), Thermal, DSC
[1] = pH 4, Sodium acetate 20 mM, reversible: yes
[2] = pH 4.5, Sodium acetate 20 mM, reversible: yes(94%)
[3] = pH 4.8, Sodium acetate 20 mM, reversible: yes(91%)
[4] = pH 5.7, Sodium cacodylate-HCl 20 mM, reversible: yes(97%)
[5] = pH 6, Sodium cacodylate-HCl 20 mM, reversible: yes(98%)
[6] = pH 6.1, Sodium cacodylate-HCl 20 mM, reversible: yes(97%)
[7] = pH 6.35, Sodium cacodylate-HCl 20 mM, reversible: yes
[8] = pH 6.75, Sodium cacodylate-HCl 20 mM, reversible: yes
[9] = pH 7, Sodium cacodylate-HCl 20 mM, reversible: yes(95%)
[10] = pH 7.2, Sodium phosphate 20 mM, reversible: yes(97%)
[11] = pH 7.25, Sodium cacodylate-HCl 20 mM, reversible: yes(98%)
[12] = pH 7.4, Sodium phosphate 20 mM, reversible: yes(98%)
[13] = pH 7.5, Sodium phosphate 20 mM, reversible: yes(97%)
[14] = pH 8.1, borate-NaOH 20 mM, reversible: yes(99%)
[15] = pH 8.4, borate-NaOH 20 mM, reversible: yes(97%)
[16] = pH 8.5, borate-NaOH 20 mM, reversible: yes(98%)
[17] = pH 8.9, borate-NaOH 20 mM, reversible: yes

Sequence of Cold shock-like protein wild type, O54310 (O54310 whole entry): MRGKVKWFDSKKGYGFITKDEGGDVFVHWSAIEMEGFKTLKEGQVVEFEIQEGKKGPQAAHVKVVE

In the case of “Cold shock-like protein wild type, O54310”, the Tm [1] is reported as 87.9 °C, the “heat capacity change of unfolding” value [1] is reported as 0.36 kcal/mol/K and the “unfolding enthalpy (calorimetric)” value [1] is reported as 50.1 kcal/mol. For the same substance, the Tm [2] was 91.6 °C, the “heat capacity change of unfolding” value [2] was 0.05 kcal/mol/K and the “unfolding enthalpy (calorimetric)” value [2] was 56.2 kcal/mol. For the same substance, the Tm [3] was 94.1 °C, the “heat capacity change of unfolding” value [3] was 0.22 kcal/mol/K and the “unfolding enthalpy (calorimetric)” value [3] was 62 kcal/mol. The “unfolding enthalpy (van 't Hoff)” value [3] was 57 kcal/mol, the Tm [4] was 93.3 °C and the “heat capacity change of unfolding” value [4] was 0.08 kcal/mol/K. The “unfolding enthalpy (calorimetric)” value [4] was 71.9 kcal/mol, the “unfolding enthalpy (van 't Hoff)” value [4] was 68.3 kcal/mol and the Tm [5] was 92.1 °C. For the same substance, the “heat capacity change of unfolding” value [5] was 0.17 kcal/mol/K, the “unfolding enthalpy (calorimetric)” value [5] was 74.6 kcal/mol and the “unfolding enthalpy (van 't Hoff)” value [5] was 71 kcal/mol. The Tm [6] was 91.2 °C, the “heat capacity change of unfolding” value [6] was 0.55 kcal/mol/K and the “unfolding enthalpy (calorimetric)” value [6] was 69.5 kcal/mol. The “unfolding enthalpy (van 't Hoff)” value [6] was 64.5 kcal/mol, the Tm [7] was 89.6 °C and the “heat capacity change of unfolding” value [7] was 0.5 kcal/mol/K. For the same substance, the “unfolding enthalpy (calorimetric)” value [7] was 68 kcal/mol, the “unfolding enthalpy (van 't Hoff)” value [7] was 63 kcal/mol and the Tm [8] was 85.8 °C. For the same substance, the “heat capacity change of unfolding” value [8] was 0.18 kcal/mol/K, the “unfolding enthalpy (calorimetric)” value [8] was 65 kcal/mol and the “unfolding enthalpy (van 't Hoff)” value [8] was 58.3 kcal/mol. The Tm [9] was 82 °C, the “heat capacity change of unfolding” value [9] was 0.36 kcal/mol/K and the “unfolding enthalpy (calorimetric)” value [9] was 62.6 kcal/mol. For the same substance, the “unfolding enthalpy (van 't Hoff)” value [9] was 60.8 kcal/mol, the Tm [10] was 83.1 °C and the “heat capacity change of unfolding” value [10] was 0.22 kcal/mol/K. The “unfolding enthalpy (calorimetric)” value [10] was 65.3 kcal/mol, the “unfolding enthalpy (van 't Hoff)” value [10] was 61 kcal/mol and the Tm [11] was 82.8 °C. For the same substance, the “heat capacity change of unfolding” value [11] was 0.4 kcal/mol/K, the “unfolding enthalpy (calorimetric)” value [11] was 61.3 kcal/mol and the “unfolding enthalpy (van 't Hoff)” value [11] was 57.5 kcal/mol. For the same substance, the Tm [12] was 80.8 °C, the “heat capacity change of unfolding” value [12] was 0.38 kcal/mol/K and the “unfolding enthalpy (calorimetric)” value [12] was 60.8 kcal/mol. For the same substance, the “unfolding enthalpy (van 't Hoff)” value [12] was 55.7 kcal/mol, the Tm [13] was 81.1 °C and the “heat capacity change of unfolding” value [13] was 0.11 kcal/mol/K. For the same substance, the “unfolding enthalpy (calorimetric)” value [13] was 54.4 kcal/mol, the “unfolding enthalpy (van 't Hoff)” value [13] was 50.4 kcal/mol and the Tm [14] was 81 °C. The “heat capacity change of unfolding” value [14] was 0.01 kcal/mol/K, the “unfolding enthalpy (calorimetric)” value [14] was 54.7 kcal/mol and the “unfolding enthalpy (van 't Hoff)” value [14] was 51 kcal/mol. The Tm [15] was 77.5 °C, the “heat capacity change of unfolding” value [15] was 0.5 kcal/mol/K and the “unfolding enthalpy (calorimetric)” value [15] was 56.1 kcal/mol. For the same substance, the Tm [16] was 77.6 °C, the “heat capacity change of unfolding” value [16] was 0.06 kcal/mol/K and the “unfolding enthalpy (calorimetric)” value [16] was 53.9 kcal/mol. For the same substance, the “unfolding enthalpy (van 't Hoff)” value [16] was 51.7 kcal/mol, the Tm [17] was 75.5 °C and the “heat capacity change of unfolding” value [17] was 0.5 kcal/mol/K. For the same substance, the “unfolding enthalpy (calorimetric)” value [17] was 56.1 kcal/mol.
